Measured values as given in EP1688435A1 (Boehringer Ingelheim International GmbH, dated 2006).

Assays:
Experiment in all cases: immunoprecipitation with myc antibodies, SDS-PAGE and silver staining (Figure 3B)
[1] = target: human cohesin subunit Smc3 (human, UniProt Q9UQE7 1-1217)
[2] = target: T1, human cohesin subunit Smc1 (human, UniProt Q14683 1-1233)
T1 construct: also called Smcl
T1 sequence (looked up): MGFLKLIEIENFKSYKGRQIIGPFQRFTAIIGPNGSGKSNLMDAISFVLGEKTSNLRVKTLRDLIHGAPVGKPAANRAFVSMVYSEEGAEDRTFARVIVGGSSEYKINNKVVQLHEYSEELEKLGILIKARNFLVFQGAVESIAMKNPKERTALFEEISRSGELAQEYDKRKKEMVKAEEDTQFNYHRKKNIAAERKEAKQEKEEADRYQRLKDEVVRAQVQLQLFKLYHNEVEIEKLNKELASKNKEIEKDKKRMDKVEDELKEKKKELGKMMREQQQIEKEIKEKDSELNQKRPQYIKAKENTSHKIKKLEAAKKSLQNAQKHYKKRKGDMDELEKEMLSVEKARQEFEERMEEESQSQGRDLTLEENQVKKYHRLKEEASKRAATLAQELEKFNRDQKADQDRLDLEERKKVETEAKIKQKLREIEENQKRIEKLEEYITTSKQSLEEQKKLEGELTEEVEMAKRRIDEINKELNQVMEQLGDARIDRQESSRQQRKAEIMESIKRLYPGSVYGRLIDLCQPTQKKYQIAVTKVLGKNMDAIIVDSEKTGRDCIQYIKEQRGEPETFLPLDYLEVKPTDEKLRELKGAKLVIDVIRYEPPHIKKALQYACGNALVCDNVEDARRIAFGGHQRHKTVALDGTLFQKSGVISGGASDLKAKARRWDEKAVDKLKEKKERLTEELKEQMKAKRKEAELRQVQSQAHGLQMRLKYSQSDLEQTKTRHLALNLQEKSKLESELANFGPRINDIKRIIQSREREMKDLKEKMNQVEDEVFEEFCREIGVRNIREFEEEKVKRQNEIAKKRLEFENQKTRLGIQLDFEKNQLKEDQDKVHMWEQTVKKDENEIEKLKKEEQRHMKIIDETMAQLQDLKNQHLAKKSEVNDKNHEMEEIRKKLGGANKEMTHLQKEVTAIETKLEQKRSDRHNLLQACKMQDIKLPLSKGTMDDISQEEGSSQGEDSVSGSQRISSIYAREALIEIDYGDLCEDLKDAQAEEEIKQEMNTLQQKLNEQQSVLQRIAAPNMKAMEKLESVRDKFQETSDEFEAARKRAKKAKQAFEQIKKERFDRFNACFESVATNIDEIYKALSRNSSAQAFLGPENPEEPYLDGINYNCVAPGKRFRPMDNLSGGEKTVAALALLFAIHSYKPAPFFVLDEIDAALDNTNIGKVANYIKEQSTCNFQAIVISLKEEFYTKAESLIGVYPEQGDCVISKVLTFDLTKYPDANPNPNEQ

[3] = target: T2, human cohesin subunit SA1 (cell-cycle state not stated) (human, UniProt Q8WVM7 1-1258)
T2 sequence (looked up): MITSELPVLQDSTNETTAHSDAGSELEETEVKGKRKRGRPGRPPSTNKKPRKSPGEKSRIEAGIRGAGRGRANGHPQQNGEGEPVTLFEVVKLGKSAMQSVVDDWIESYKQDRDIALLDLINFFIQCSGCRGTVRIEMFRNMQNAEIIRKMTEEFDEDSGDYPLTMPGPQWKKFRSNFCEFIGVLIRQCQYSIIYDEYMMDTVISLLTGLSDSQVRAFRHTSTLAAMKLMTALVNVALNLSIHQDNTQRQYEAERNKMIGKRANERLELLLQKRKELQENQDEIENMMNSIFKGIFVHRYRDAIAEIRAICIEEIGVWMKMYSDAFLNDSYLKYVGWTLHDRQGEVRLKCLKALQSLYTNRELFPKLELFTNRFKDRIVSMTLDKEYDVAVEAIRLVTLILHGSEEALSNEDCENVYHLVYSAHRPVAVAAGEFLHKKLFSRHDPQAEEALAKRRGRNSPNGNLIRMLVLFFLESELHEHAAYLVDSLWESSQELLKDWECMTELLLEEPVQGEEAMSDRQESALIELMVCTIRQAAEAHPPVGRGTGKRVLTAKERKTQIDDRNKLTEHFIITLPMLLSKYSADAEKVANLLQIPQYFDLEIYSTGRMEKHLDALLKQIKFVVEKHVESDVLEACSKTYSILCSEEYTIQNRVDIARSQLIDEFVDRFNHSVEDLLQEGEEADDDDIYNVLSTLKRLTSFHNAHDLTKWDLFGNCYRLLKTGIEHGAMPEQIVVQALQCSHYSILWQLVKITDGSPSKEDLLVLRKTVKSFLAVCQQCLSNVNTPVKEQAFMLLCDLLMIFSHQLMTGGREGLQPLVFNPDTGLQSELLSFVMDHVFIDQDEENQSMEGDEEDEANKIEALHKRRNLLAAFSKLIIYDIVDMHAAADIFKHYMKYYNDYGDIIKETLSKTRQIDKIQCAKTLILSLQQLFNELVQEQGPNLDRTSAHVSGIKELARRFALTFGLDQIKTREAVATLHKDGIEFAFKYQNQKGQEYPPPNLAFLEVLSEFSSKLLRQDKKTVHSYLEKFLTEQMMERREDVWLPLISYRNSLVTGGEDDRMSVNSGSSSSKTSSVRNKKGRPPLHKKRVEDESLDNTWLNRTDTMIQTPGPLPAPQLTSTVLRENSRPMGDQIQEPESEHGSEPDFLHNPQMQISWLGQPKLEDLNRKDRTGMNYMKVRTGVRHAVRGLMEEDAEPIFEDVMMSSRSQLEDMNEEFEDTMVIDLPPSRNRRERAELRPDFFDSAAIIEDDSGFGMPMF

[4] = target: T3, human cohesin subunit SA2 (cell-cycle state not stated) (human, UniProt Q8N3U4 1-1231)
T3 construct: Endogenous protein from HeLa cells
T3 sequence: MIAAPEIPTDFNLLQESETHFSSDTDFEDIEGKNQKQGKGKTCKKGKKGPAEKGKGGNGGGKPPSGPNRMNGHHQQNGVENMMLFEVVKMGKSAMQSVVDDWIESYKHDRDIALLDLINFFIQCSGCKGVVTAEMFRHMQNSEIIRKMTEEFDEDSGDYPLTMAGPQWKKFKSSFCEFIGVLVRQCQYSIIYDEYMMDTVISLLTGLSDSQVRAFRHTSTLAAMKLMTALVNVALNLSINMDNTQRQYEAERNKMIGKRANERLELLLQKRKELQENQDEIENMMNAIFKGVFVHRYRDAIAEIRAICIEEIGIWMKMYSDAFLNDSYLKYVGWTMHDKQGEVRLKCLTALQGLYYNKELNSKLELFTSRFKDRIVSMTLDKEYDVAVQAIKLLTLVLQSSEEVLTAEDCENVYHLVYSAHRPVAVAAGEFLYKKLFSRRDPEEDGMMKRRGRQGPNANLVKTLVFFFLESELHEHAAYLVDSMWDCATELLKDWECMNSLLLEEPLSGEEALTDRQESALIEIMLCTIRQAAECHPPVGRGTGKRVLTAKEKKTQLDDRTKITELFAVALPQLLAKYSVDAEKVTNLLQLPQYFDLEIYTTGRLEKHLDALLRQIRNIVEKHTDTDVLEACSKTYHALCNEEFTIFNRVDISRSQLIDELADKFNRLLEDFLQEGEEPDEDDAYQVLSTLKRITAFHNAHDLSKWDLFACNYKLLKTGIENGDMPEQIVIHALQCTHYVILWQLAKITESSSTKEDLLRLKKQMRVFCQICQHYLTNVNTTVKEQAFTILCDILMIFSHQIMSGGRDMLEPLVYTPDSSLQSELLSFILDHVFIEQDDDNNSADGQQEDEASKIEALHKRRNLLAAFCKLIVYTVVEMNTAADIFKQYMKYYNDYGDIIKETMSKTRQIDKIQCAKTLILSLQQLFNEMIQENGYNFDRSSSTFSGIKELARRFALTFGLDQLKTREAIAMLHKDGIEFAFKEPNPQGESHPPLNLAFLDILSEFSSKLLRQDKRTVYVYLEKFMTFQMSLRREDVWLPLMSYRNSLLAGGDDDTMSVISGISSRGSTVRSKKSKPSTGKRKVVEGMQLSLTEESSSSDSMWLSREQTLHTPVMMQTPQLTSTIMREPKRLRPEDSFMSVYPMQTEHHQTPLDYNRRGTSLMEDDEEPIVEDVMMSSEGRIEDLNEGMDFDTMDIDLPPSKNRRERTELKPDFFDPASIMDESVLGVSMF

Measured: binding result

human cohesin subunit Smc3, sequence (Q9UQE7 whole entry): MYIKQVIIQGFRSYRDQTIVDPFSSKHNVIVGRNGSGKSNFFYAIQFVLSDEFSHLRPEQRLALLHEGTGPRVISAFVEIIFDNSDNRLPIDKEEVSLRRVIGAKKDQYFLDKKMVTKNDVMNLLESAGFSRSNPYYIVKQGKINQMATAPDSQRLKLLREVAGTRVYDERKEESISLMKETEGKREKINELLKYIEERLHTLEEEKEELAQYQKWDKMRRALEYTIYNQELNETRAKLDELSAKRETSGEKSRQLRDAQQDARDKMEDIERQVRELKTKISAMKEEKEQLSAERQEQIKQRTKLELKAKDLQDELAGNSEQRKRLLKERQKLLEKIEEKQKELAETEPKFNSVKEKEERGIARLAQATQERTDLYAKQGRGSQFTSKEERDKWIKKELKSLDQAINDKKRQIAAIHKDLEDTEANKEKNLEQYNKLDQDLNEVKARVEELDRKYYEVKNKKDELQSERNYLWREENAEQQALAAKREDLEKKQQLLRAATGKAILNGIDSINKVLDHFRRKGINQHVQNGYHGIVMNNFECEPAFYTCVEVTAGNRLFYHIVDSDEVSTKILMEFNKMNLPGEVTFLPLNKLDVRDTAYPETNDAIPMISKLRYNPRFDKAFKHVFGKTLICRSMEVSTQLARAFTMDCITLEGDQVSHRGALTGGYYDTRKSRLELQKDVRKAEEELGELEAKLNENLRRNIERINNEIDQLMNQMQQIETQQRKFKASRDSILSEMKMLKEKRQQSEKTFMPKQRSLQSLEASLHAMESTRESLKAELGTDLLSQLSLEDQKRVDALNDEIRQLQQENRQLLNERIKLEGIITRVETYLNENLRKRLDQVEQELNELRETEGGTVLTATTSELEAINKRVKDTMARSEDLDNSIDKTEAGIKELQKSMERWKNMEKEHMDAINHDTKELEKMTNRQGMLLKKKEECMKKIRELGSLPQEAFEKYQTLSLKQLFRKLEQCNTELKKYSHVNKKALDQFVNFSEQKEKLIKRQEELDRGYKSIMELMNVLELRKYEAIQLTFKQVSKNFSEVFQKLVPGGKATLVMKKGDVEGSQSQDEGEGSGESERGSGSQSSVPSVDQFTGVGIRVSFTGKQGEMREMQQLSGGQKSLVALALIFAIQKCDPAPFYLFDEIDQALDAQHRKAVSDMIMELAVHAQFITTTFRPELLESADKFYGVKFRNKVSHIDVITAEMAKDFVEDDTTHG

B1: Scc1-S454A-myc expressed in HeLa tet-on cells (cell-cycle state not stated) (other)
chain: MFYAHFVLSKRGPLAKIWLAAHWDKKLTKAHVFECNLESSVESIISPKVKMALRTSGHLLLGVVRIYHRKAKYLLADCNEAFIKIKMAFRPGVVDLPEENREAAYNAITLPEEFHDFDQPLPDLDDIDVAQQFSLNQSRVEEITMREEVGNISILQENDFGDFGMDDREIMREGSAFEDDDMLVSTTTSNLLLESEQSTSNLNEKINHLEYEDQYKDDNFGEGNDGGILDDKLISNNDGGIFDDPPALSEAGVMLPEQPAHDDMDEDDNVSMGGPDSPDSVDPVEPMPTMTDQTTLVPNEEEAFALEPIDITVKETKAKRKRKLIVDSVKELDSKTIRAQLSDYSDIVTTLDLAPPTKKLMMWKETGGVEKLFSLPAQPLWNNRLLKLFTRCLTPLVPEDLRKRRKGGEADNLDEFLKEFENPEVPREDQQQQHQQRDVIDEPIIEEPSRLQEAVMEASRTNIDESAMPPPPPQGVKRKAGQIDPEPVMPPQQVEQMEIPPVELPPEEPPNICQLIPELELLPEKEKEKEKEKEDDEEEEDEDASGGDQDQEERRWNKRTQQMLHGLQRALAKTGAESISLLELCRNTNRKQAAAKFYSFLVLKKQQAIELTQEEPYSDIIATPGPRFHII
notes: not shown: 9xmyc tag at the C-terminus
binds: all assays above
